Experimental data taken from patent publication US20020031818A1, “Modification of Mdm2 activity” (priority 2000, published 2002).

How the values were obtained:
p53 = p53 ubiquitination and p53 level in EJ cells; format: cell-based, mouse
Excerpt: (§1) FIG. 14A-14E. A. In vitro ubiquitination of Mdm2 is inhibited by p19^ARF. GST-Mdm2 was subjected to an in vitro ubiquitination reaction using purified forms of E1, E2 and Ub-HA in the presence of ATP. Addition of bacculovirus-purified p19^ARF at the indicated concentrations blocked Mdm2 ubiquitination. Glutathione bead-coupled GST-Mdm2 in its ubiquitinated or non-ubiquitinated forms was washed and analyzed on immunoblots using antibodies to HA (upper panel). Middle panel depicts the level of Mdm2 expression and the lower panel, the level of p19^ARF added to the reaction. B. p19^ARF expression increases Mdm2 self-ubiquitination in EJ cells. EJ cells were transfected with the indicated plasmids. Cells were harvested 36 h later and proteins ([…]) were immunoprecipitated using Mdm2 antibodies (2A10). Immunoprecipitated material was washed and proteins loaded onto 10% SDS-PAGE, followed by immunoblot analysis with HA-antibodies to detect covalent HA-ubiquitin conjugation to Mdm2 (upper panel). Middle panel depicts level of immunoprecipitated Mdm2. Lower panel represents western analysis of p19^ARF expression levels. C. In vitro ubiquitination of Mdm2 in the presence of p19^ARF and protein extracts. […] The level of p53 immunoprecipitated was monitored in immunoblots using polyclonal antibodies to p53 (middle). […]

[1] = tested on: p53 transcriptional activity; assay: p21-luc luciferase reporter assay in EJ cells; format: cell-based, mouse; conditions: EJ cells transfected with p53, p19ARF and p21 promoter luciferase construct
Excerpt: as §1, with “(2A10).” for “(2A10). Immunoprecipitated material was washed and proteins loaded onto 10% SDS-PAGE, followed by immunoblot analysis with HA-antibodies to detect covalent HA-ubiquitin conjugation to Mdm2 (upper panel). Middle panel depicts level of immunoprecipitated Mdm2. Lower panel represents western analysis of p19^ARF expression levels. C. In vitro ubiquitination of Mdm2 in the presence of p19^ARF and protein extracts.”
Non-denaturing immunoprecipitation and luciferase assay p53/Mdm2 double null cells (Fuch et al., Oncogene 17:2543-2547, 1998), EJ, NIH3T3 mouse fibroblasts and TIG human fibroblasts were maintained in DMEM (Gibco) supplemented with 10% heat-inactivated fetal bovine serum and antibiotics in 5% CO2 Transfections were performed by lipofection (LipofectaminPlus, GIBCO). […] Luciferase activity was determined using the Promega luciferase assay system (Promega, Madison, Wis.). […]

GST-Mdm2 = target: T1, GST-Mdm2 (Homo sapiens, UniProt Q00987); assay: In vitro conjugation of SUMO-1 to GST-Mdm2 (in vitro sumoylation); format: biochemical
T1 construct: made in house
T1 sequence (Q00987 whole entry): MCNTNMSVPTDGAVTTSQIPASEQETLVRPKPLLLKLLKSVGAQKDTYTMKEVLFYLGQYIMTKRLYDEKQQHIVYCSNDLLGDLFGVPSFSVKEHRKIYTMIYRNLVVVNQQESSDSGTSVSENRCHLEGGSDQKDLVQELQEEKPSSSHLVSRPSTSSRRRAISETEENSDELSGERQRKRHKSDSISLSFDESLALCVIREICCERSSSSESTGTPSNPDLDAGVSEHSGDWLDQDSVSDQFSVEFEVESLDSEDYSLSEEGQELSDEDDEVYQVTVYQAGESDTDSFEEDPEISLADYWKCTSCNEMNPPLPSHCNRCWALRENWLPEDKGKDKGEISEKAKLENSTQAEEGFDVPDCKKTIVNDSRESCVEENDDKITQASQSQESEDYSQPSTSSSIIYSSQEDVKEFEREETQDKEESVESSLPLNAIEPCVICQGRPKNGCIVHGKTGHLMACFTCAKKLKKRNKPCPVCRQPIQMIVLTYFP
Procedure: A. Time dependent Mdm2 sumoylation in vitro. Bacterially expressed and purified GST-Mdm2 was subjected to in vitro sumoylation reaction in the presence of E1, Ubc9, and ^35S-Sumos. Reaction was terminated after 10,30,50 or 60 minutes, Proteins were separated on 8% gel, Commassie stained, dryed and exposed overnight (upper panel). Lower panel depicts Commassie blue staining of Mdm2 forms. […] (Upper part) The specific Ubc-9-binding site peptide or a nonspecific peptide was added to the reaction for the indicated time periods. […] The lower panel depicts a Coomassie staining visualizing relative amounts of sumoylated and non-sumoylated forms of purified GST-Mdm2. C. The Mdm2 sumoylation assay was carried out in the presence of Ubc-9-binding site peptide (mu9bs) or a nonspecific peptide (mu9bs) which were added to the reaction at the indicated concentrations. […] Mdm2/p53 double null cells were transfected with Flag-tagged Mdm2, HA-tagged Sumo-1 and increasing amounts of the specific or nonspecific Ubc-9-peptides, respectively. Cells were harvested 36 h later and 500 μg of protein was immunoprecipitated using Mdm2 antibodies (2A10). Immunoprecipitated Mdm2 levels were detected using 2A10 antibodies (top). The same membrane was stripped and reprobed using monoclonal antibodies against Sumo-1 (Zymed, middle) to visualize the level of Sumo-1 conjugation to Mdm2 after Ubc-9-peptide expression.
A. Bacterially expressed and purified Mdm2 (1 μg) was incubated with ^32P-labeled Sumo-1, purified Aos1/Uba2 and Ubc9 (0.5 μg) for 60 min at 37° C. in conjugation buffer. For indicated time-periods in vitro translated wt or mutant p19^ARF (0.5 mg) was added to the sumoylation reactions. Upper panel depicts the amount of Sumoylated Mdm2, lower panel reveal the level of Mdm2 and Sumo-Mdm2 in Coomassie blue gel. B. Bacterially expressed and purified Mdm2 (1 μg) was incubated with in vitro-translated ^35S-Sumo, purified Aos1/Uba2 and Ubc9 (0.5 μg) for 60 min at 37° C. in conjugation buffer in the presence of the increasing amounts of bacculovirus-expressed p19^ARF (0, 0.1, 0.5, 1 μg; lanes 1-4 respectively). Bead-bound complexes were washed before being denatured in 3× Sample Buffer. Proteins were separated on 8% SDS-PAGE. Gel was stained with Coomassie blue to verify equal Mdm2 input (lower panel), dried and exposed to X-ray film, which depicts SUMO-1 conjugation to Mdm2 in the presence of the indicated p19 forms (upper panel). […] Double-null cells were transfected with Flag-tagged Mdm2 (1.5 μg), HA-tagged SUMO (1.5 μg) and p19 wt (1.5 μg). Cells were treated with MG132 (40 mM) for 5 h prior to protein preparation. […] (Left) Immunoprecipitated Mdm2 was detected using monoclonal Mdm2 antibodies (2A10, left). […]

Mdm2 = Mdm2 (Homo sapiens, UniProt Q00987); assay: Co-immunoprecipitation of p19ARF forms with Mdm2; format: cell-based; design: expressed in transfected cells; host or cells: 293T; conditions: forced expression of Mdm2 and wt or Δ62 p19ARF
Chain of Mdm2 (Q00987 whole entry): as above

B1: p19^ARF: Mdm2-regulating protein; in vitro translated, bacculovirus-expressed or transfected (protein)
chain: MGRRFLVTVRIQRAGRPLQERVFLVKFVRSRRPRTASCALAFVNMLLRLERILRRGPHRNPGPGDDDGQRSRSSSSAQLRCRFELRGPHYLLPPGARRSAGRLPGHAGGAARVRGSAGCARCLGSPAARLGPRAGTSRHRAIFAFRWVLFVFRWVVFVYRWERRPDRRA
For B1, the “levels of p53” value (p53) was “elevated levels of p53”, the “degree of p53 ubiquitination” value (p53; Flag-Mdm2, wt p53, HA-Ub, p19ARF constructs 1 μg each) was “noticeable decrease in the degree of p53 ubiquitination” and the “p53 transcriptional activity (p21-luc)” value [1] was “corresponding increase”. The “in vitro sumoylation of Mdm2 with p19ARF purified from insect cells” value (GST-Mdm2; 0, 0.1, 0.5, 1 μg bacculovirus-expressed p19ARF) was “inhibited in a dose-dependent manner”, the “GST-Mdm2 sumoylation in vitro with in vitro-translated p19 forms” value (GST-Mdm2; in vitro-translated wt or mutant p19ARF) was “efficient inhibition of GST-Mdm2 sumoylation in vitro” and the “complex of p19ARF form with Mdm2” value (Mdm2) was “only the wt form in complex with Mdm2”.
